Measurements: paper doi:10.1101/2023.06.21.544075 (bioRxiv, 2023)

B1: hOvst-cleaved hZP2-N1N2N3 (domain or fragment)
chain 1: not shown
chain 2: not shown
B2: mouse ZP2 NTR ΔN1 construct mZP2-N2N3 (domain or fragment, UniProt P20239 135-360, looked up)
chain: PAIQAETHEISEIVVCRRDLISFSFPQLFSRLADENQNVSEMGWIVKIGNGTRAHILPLKDAIVQGFNLLIDSQKVTLHVPANATGIVHYVQESSYLYTVQLELLFSTTGQKIVFSSHAICAPDLSVACNATHMTLTIPEFPGKLESVDFGQWSIPEDQWHANGIDKEATNGLRLNFRKSLLKTKPSEKCPFYQFYLSSLKLTFYFQGNMLSTVIDPECHCESPVS

Assays:
SEC-MALS = biological target: the molecule itself; assay: SEC-MALS
crystal structure = biological target: the molecule itself; assay: crystal structure

Protein | stoichiometry N (SEC-MALS) | stoichiometry N (crystal structure)
B1 | 2 | 
B2 |  | 2
